Test results from US20240241135A1 (SENBOLL BIOTECHNOLOGY, published 2024).

Columns and labels:
[1] = target: T1, recombinant human regenerating islet-derived protein 1α (REG1A) (human, UniProt P05451 23-166, limits assumed); assay: sandwich ELISA; capture 12F12A10; REG1A 0 ng/mL (blank)
T1 construct: also called recombinant human REG1A; recombinant REG1A
T1 sequence (looked up): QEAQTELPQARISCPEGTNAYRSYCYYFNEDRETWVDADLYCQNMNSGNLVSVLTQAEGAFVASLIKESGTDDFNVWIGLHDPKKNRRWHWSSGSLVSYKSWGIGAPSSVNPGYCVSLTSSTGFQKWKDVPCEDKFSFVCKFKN
Outline: (§1)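 In this sandwich ELISA, the capture monoclonal antibody was coated in PBS overnight at 4 °C, and blocking followed for 2 h at 37 °C. Recombinant human REG1A in basic diluent was incubated for 1 h at 37 °C, then a horseradish peroxidase-based detection antibody system and TMB substrate were applied for 15 min at 37 °C before the reaction was stopped with 0.2M sulfuric acid. The OD value is the dual-wavelength corrected absorbance. It equals the absorbance at 450 nm minus the absorbance at 620/630 nm.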

[2] = target: T1, recombinant human regenerating …; assay: sandwich ELISA; capture 25F3C4; REG1A 0 ng/mL (blank)
Outline: as §1

[3] = target: T1, recombinant human regenerating …; assay: sandwich ELISA; capture 4H8F1; REG1A 33.33 ng/mL
Outline: as §1

[4] = target: T1, recombinant human regenerating …; assay: sandwich ELISA; capture 21B11D2; REG1A 33.33 ng/mL
Outline: as §1

[5] = target: T1, recombinant human regenerating …; assay: sandwich ELISA; capture 4H8F1; REG1A 100.00 ng/mL
Outline: as §1

[6] = target: T1, recombinant human regenerating …; assay: sandwich ELISA; capture 21B11D2; REG1A 11.11 ng/mL
Outline: as §1

[7] = target: T1, recombinant human regenerating …; assay: sandwich ELISA; capture 25F3C4; REG1A 33.33 ng/mL
Outline: as §1

[8] = target: T1, recombinant human regenerating …; assay: sandwich ELISA; capture 11D11B11; REG1A 0 ng/mL (blank)
Outline: as §1

[9] = target: T1, recombinant human regenerating …; assay: sandwich ELISA; capture 12F12A10; REG1A 33.33 ng/mL
Outline: as §1

[10] = target: T1, recombinant human regenerating …; assay: sandwich ELISA; capture 11D11B11; REG1A 3.70 ng/mL
Outline: as §1

[11] = target: T1, recombinant human regenerating …; assay: sandwich ELISA; capture 11D11B11; REG1A 1.23 ng/mL
Outline: as §1

[12] = target: T1, recombinant human regenerating …; assay: sandwich ELISA; capture 12F12A10; REG1A 100.00 ng/mL
Outline: as §1

[13] = target: T1, recombinant human regenerating …; assay: sandwich ELISA; capture 11D11B11; REG1A 100.00 ng/mL
Outline: as §1

[14] = target: T1, recombinant human regenerating …; assay: sandwich ELISA; capture 12F12A10; REG1A 11.11 ng/mL
Outline: as §1

[15] = target: T1, recombinant human regenerating …; assay: sandwich ELISA; capture 21B11D2; REG1A 3.70 ng/mL
Outline: as §1

[16] = target: T1, recombinant human regenerating …; assay: sandwich ELISA; capture 4H8F1; REG1A 1.23 ng/mL
Outline: as §1

[17] = target: T1, recombinant human regenerating …; assay: sandwich ELISA; capture 12F12A10; REG1A 3.70 ng/mL
Outline: as §1

[18] = target: T1, recombinant human regenerating …; assay: sandwich ELISA; capture 4H8F1; REG1A 3.70 ng/mL
Outline: as §1

[19] = target: T1, recombinant human regenerating …; assay: sandwich ELISA; capture 25F3C4; REG1A 1.23 ng/mL
Outline: as §1

[20] = target: T1, recombinant human regenerating …; assay: sandwich ELISA; capture 21B11D2; REG1A 1.23 ng/mL
Outline: as §1

[21] = target: T1, recombinant human regenerating …; assay: sandwich ELISA; capture 11D11B11; REG1A 33.33 ng/mL
Outline: as §1

[22] = target: T1, recombinant human regenerating …; assay: sandwich ELISA; capture 21B11D2; REG1A 100.00 ng/mL
Outline: as §1

[23] = target: T1, recombinant human regenerating …; assay: sandwich ELISA; capture 4H8F1; REG1A 0 ng/mL (blank)
Outline: as §1

[24] = target: T1, recombinant human regenerating …; assay: sandwich ELISA; capture 25F3C4; REG1A 100.00 ng/mL
Outline: as §1

[25] = target: T1, recombinant human regenerating …; assay: sandwich ELISA; capture 25F3C4; REG1A 3.70 ng/mL
Outline: as §1

[26] = target: T1, recombinant human regenerating …; assay: sandwich ELISA; capture 11D11B11; REG1A 11.11 ng/mL
Outline: as §1

[27] = target: T1, recombinant human regenerating …; assay: sandwich ELISA; capture 21B11D2; REG1A 0 ng/mL (blank)
Outline: as §1

[28] = target: T1, recombinant human regenerating …; assay: sandwich ELISA; capture 12F12A10; REG1A 1.23 ng/mL
Outline: as §1

[29] = target: T1, recombinant human regenerating …; assay: sandwich ELISA; capture 4H8F1; REG1A 11.11 ng/mL
Outline: as §1

[30] = target: T1, recombinant human regenerating …; assay: sandwich ELISA; capture 25F3C4; REG1A 11.11 ng/mL
Outline: as §1

Binder	OD value [1]	OD value [2]	OD value [3]	OD value [4]	OD value [5]	OD value [6]	OD value [7]	OD value [8]	OD value [9]	OD value [10]	OD value [11]	OD value [12]	OD value [13]	OD value [14]	OD value [15]	OD value [16]	OD value [17]	OD value [18]	OD value [19]	OD value [20]	also measured
antibody 11D11B11 (antibody, mouse IgG2a, kappa, V domains shown, Mouse monoclonal from hybridoma, stated mouse IgG1/Kappa; Used unlabelled as capture and biotin-labelled as detection antibody; also called 11D11B11-biotin) VH: DVKLVESGGGLVKPGGSLKLSCAASGFTFSSFSMSWFRQTPDKRLEWVATISSGGSSTYYPDSVKGRFTISRDNAKNTLYLQMTSLKSEDTAIFYCRGGYYGNYDPLDYWGQGTSVTVSA VL: DIVMIQSQKFMSTSVGDRVSITCTASHNVDSNVAWYQQKPGQSPQALIYSASYRYSGVPDRFTGSGSGTDFTLTINNVQSEDLAEYFCQQYNSYPLTFGGGTRLEIKR	0.075 OD	0.074 OD	4.22 OD	0.077 OD	4.24 OD	0.077 OD	0.083 OD	0.079 OD	3.03 OD	0.066 OD	0.066 OD	3.15 OD	0.064 OD	2.69 OD	0.069 OD	2.46 OD	1.54 OD	3.74 OD	0.071 OD	0.089 OD	OD value [21]: 0.064 OD; OD value [22]: 0.075 OD; OD value [23]: 0.21 OD; OD value [24]: 0.089 OD; OD value [25]: 0.076 OD; OD value [26]: 0.072 OD; OD value [27]: 0.074 OD; OD value [28]: 0.934 OD; OD value [29]: 4.1 OD; OD value [30]: 0.079 OD
antibody 12F12A10 (antibody, V domains shown, Mouse monoclonal from hybridoma, stated mouse IgG1/Kappa; also called 12F12A10-biotin; Antibody 2) VH: QVQLQQSATELARPGASVKMSCKASGYTFTSYMMHWVKQRPGQGLEWIGYINPSSGYTDYNQKFKDKTTLTADKSSSTAYMQLSSLTSEDSAVYYCARYRYPHYFDYWGQGTTLTVSS VL: QIVLTQSPAIMSASPGEKVTMTCSASSSVSYIHWYQQKSGTSPKRWIYDTSKLASGVPARFSGSGSGTSYSLTISSMEAEDAAIYYCQQWSSNPPTFGAGTKLELKR	0.089 OD	0.093 OD	4.33 OD	4.59 OD	4.33 OD	4.23 OD	4.29 OD	0.083 OD	0.098 OD	2.81 OD	1.05 OD	0.096 OD	4.22 OD	0.088 OD	4.59 OD	2.99 OD	0.088 OD	3.84 OD	3.76 OD	3.9 OD	OD value [21]: 4.08 OD; OD value [22]: 4.65 OD; OD value [23]: 0.088 OD; OD value [24]: 4.48 OD; OD value [25]: 4.25 OD; OD value [26]: 3.9 OD; OD value [27]: 0.09 OD; OD value [28]: 0.098 OD; OD value [29]: 4.22 OD; OD value [30]: 4.37 OD
antibody 4H8F1 (antibody, V domains shown, Mouse monoclonal from hybridoma, stated mouse IgG1/Kappa; also called 4H8F1-biotin; Antibody 1) VH: QVTLKESGPGILQPSQTLSLTCSFSGFSLSTSGMSVGWIRQPSGKGLEWLAHIWWNDDKFYNPALKSRLTISKDTSKNQIFLKIASVVTADSATYYCARIEEGWFAYWGQGTLVTVST VL: SIVMTQTPKFLLVSVGDRVTITCKASQTMSNDVAWYQQKPGQSPKLLIYYASNRYTGVPDRFTGSGYGTDFTFTISTVQAEDLAVYFCQQDYSSPLTFGAGTKLELKR	0.068 OD	0.076 OD	0.081 OD	0.078 OD	0.09 OD	0.073 OD	0.085 OD	1.21 OD	3.27 OD	2.87 OD	1.37 OD	3.18 OD	4.24 OD	3.05 OD	0.077 OD	0.074 OD	2.42 OD	0.079 OD	0.087 OD	0.078 OD	OD value [21]: 4.48 OD; OD value [22]: 0.084 OD; OD value [23]: 0.074 OD; OD value [24]: 0.086 OD; OD value [25]: 0.082 OD; OD value [26]: 3.87 OD; OD value [27]: 0.075 OD; OD value [28]: 1.3 OD; OD value [29]: 0.081 OD; OD value [30]: 0.078 OD
